Assay results taken from article PMC5658604.

Key:
[1] = system: TtSmtB (Thermus thermophilus HB27); test: EMSA; conditions: cooperative, EMSA as in Fiorentino et al., 2007 (buffer not given here), 0-15 uM protein, 1 nM probe in the competition assay, footprinting in binding buffer, DNase I 1 min …
[2] = molecular target: T1, TtSmtB (Thermus thermophilus HB27) (UniProt Q72KG0); test: EMSA; conditions: EMSA as in Fiorentino et al., 2007 (buffer not given here), 0-15 uM protein, 1 nM probe in the competition assay; footprinting in binding buffer, DNase I 1 min …
T1 sequence: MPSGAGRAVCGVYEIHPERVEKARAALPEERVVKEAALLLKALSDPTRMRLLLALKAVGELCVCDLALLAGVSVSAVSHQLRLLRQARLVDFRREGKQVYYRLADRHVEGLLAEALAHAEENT

[3] = molecular target: T1, TtSmtB (Thermus thermophilus HB27); test: competition; conditions: EMSA as in Fiorentino et al., 2007 (buffer not given here), 0-15 uM protein, 1 nM probe in the competition assay; footprinting in binding buffer, DNase I 1 min …
[4] = molecular target: T1, TtSmtB (Thermus thermophilus HB27); test: DNase I footprinting; conditions: EMSA as in Fiorentino et al., 2007 (buffer not given here), 0-15 uM protein, 1 nM probe in the competition assay, DNase I 1 min …

Substance: 0354p (TTC0354 promoter)
- Kd ([1]; apparent, Hill fit): 1.4 µM

Substance: AGAGGACGAGGACCCGCATCCTCCAAAGCCTAGCCCCCCTTCGGTCAGGGGGAGATCATGCGCTCAAGCTGGGCCACC (double strand) [TtarsCp (TtarsC promoter)]
- binding [2]: binds

Substance: CGCCTCGCCGACCGGCACGTGGAGGGCCTGTTGGCGGAGGCCCTGGCCCACGCGGAAGAAAACACTTGACCAGTTGCTCAAATGATGCTACCCTGGGGGCATGAAGGCTCCCAGAGTGCGCGTCTTCCGGGTAGAGGGCATGG (double strand) [0354p (TTC0354 promoter)]
- Kd [2]: 1.4 µM
- binding [3]: binds
- binding [4]: binds

Substance: CTCCTTGACCACCCTCTCCTCGGGCAGGGCGGCCCGGGCCTTCTCCACCCTTTCCGGGTGGATCTCGTAGACCCCGCAGACCGCCCTACCAGCCCCGCTTGGCAAGCCTTTCCTCCTCCTTGAGCTGGTCCAGGTTGATGCCCACCATG (double strand) [TtsmtBp (TtsmtB promoter)]
- Kd [2]: 5 µM

Substance: TtsmtBp (TtsmtB promoter)
- Kd ([1]; multiple complexes): 5 µM
